The target in this assay is GST-BRCA1 (tandem BRCT) M1775R (UniProt P38398). Put plainly: pull-down.

B1: His-GIV-CT (aa 1660-1870) (domain or fragment)
chain: SETLESRHHKIKTGSPGSEVVTLQQFLEESNKLTSVQIKSSSQENLLDEVMKSLSVSSDFLGKDKPVSCGLARSVSGKTPGDFYDRRTTKPEFLRPGPRKTEDTYFISSAGKPTPGTQGKIKLVKESSLSRQSKDSNPYATLPRASSVISTAEGTTRRTSIHDFLTKDSRLPISVDSPPAAADSNTTAASNVDKVQESRNSKSRSREQQSS
With B1, the fold change of binding against BRCA1 (tandem BRCT) WT lay within 3 to 5 fold.

The record behind these values is paper doi:10.1101/2021.07.21.452842.
